Columns and labels:
[1] = biological target: serum-derived protein (Zucker rat); assay: solid phase capture ELISA of Zucker rat skin perfusate, 2 minutes after perfusion, 1 mM Ca^2+
[2] = biological target: serum-derived protein (Zucker rat); assay: solid phase capture ELISA of Zucker rat skin perfusate, 90 minutes after perfusion, 1 mM Ca^2+
[3] = biological target: serum-derived protein (Zucker rat); assay: solid phase capture ELISA of Zucker rat skin perfusate, 30 minutes after start of perfusion, 1 mM Ca^2+
[4] = biological target: serum-derived protein (Zucker rat); assay: solid phase capture ELISA of Zucker rat skin perfusate, 2 minutes after perfusion, 10 mM Ca^2+
[5] = biological target: serum-derived protein (Zucker rat); assay: solid phase capture ELISA of Zucker rat skin perfusate, 30 minutes after perfusion, 1 mM Ca^2+
[6] = biological target: serum-derived protein (Zucker rat); assay: solid phase capture ELISA of Zucker rat skin perfusate, 30 minutes after perfusion, 10 mM Ca^2+
[7] = biological target: serum-derived protein (Zucker rat); assay: solid phase capture ELISA of Zucker rat skin perfusate, 60 minutes after perfusion, 10 mM Ca^2+
[8] = biological target: serum-derived protein (Zucker rat); assay: solid phase capture ELISA of Zucker rat skin perfusate, 90 minutes after perfusion, 10 mM Ca^2+

Chain of wild-type human matrix metalloprotease 1 (hMMP-1), purified and trypsin-activated (P03956 100-469): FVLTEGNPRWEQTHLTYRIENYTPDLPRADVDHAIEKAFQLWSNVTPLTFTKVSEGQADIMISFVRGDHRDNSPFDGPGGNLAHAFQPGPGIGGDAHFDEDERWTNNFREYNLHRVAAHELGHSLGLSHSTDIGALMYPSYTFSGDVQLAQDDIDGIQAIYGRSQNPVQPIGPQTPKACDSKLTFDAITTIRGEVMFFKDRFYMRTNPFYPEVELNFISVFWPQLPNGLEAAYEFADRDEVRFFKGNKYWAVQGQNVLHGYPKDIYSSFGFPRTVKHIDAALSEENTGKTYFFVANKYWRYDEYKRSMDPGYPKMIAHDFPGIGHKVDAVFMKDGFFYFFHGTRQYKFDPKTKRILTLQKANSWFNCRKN

percent of uncomplexed protein (of the starting concentration) [1] | uncomplexed protein as a fraction of the starting concentration (fraction of the starting concentration) [2] | uncomplexed protein as a fraction of the starting concentration (fraction of the starting concentration) [3] | percent of uncomplexed protein (of the starting concentration) [4] | uncomplexed protein as a fraction of the starting concentration (fraction of the starting concentration) [5] | percent of uncomplexed protein (of the starting concentration) [6] | percent of uncomplexed protein (of the starting concentration) [7] | percent of uncomplexed protein (of the starting concentration) [8] | Substance
90% | 0.33 | 0.5 | – | – | – | – | – | wild-type human matrix metalloprotease 1 (hMMP-1), purified and trypsin-activated (from UniProt P03956 100-469) (enzyme)
45% | – | – | 90% | < 0.1 | 50% | 30% | 13% | MMP-1 mutant GVSK (G159V/S208K), purified and trypsin-activated (from UniProt P03956 100-469) (enzyme)
